Data taken from the supplement of paper PMC9112550, “Optimization of the antimicrobial peptide Bac7 by deep mutational scanning” (BMC Biology, 2022).

System: Escherichia coli TOP10
Assay: shrunken log2 fold change of peptide-encoding DNA abundance (4.5 h post-induction vs induction); higher = less antimicrobial activity (less host growth inhibition)
Details: time post-induction: 4.5 h; library: site-saturation at positions 5, 18, 19, 20
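Also: peptides expressed intracellularly from a pBAD plasmid library in pooled LB shake-flask culture, induced with 0.3% L-arabinose, DNA abundance read by NGS, three biological replicates, DESeq2 with apeglm shrinkage.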

Row | Sequence | shrunken log2 fold change
1 | RRIRVRPPRLPRPRPRPFTRPRP | 0.114
2 | RRIRVRPPRLPRPRPRPFTTPRP | -0.211
3 | RRIRVRPPRLPRPRPRPFVAPRP | -0.118
4 | RRIRVRPPRLPRPRPRPFVKPRP | -0.199
5 | RRIRVRPPRLPRPRPRPFVNPRP | -0.0619
6 | RRIRVRPPRLPRPRPRPFVSPRP | -0.679
7 | RRIRVRPPRLPRPRPRPFYFPRP | -0.493
8 | RRIRVRPPRLPRPRPRPFYLPRP | -0.449
9 | RRIRVRPPRLPRPRPRPGCPPRP | 0.181
10 | RRIRVRPPRLPRPRPRPGDYPRP | -0.0161
11 | RRIRVRPPRLPRPRPRPGEHPRP | -0.035
12 | RRIRVRPPRLPRPRPRPGGCPRP | 0.261
13 | RRIRVRPPRLPRPRPRPGHIPRP | -0.028
14 | RRIRVRPPRLPRPRPRPGHMPRP | 0.0482
15 | RRIRVRPPRLPRPRPRPGIKPRP | 0.174
16 | RRIRVRPPRLPRPRPRPGIVPRP | 0.106
17 | RRIRVRPPRLPRPRPRPGKKPRP | 0.0628
18 | RRIRVRPPRLPRPRPRPGKRPRP | -0.00991
19 | RRIRVRPPRLPRPRPRPGMGPRP | 0.0724
20 | RRIRVRPPRLPRPRPRPGMPPRP | 0.0671
21 | RRIRVRPPRLPRPRPRPGNQPRP | -0.284
22 | RRIRVRPPRLPRPRPRPGPRPRP | 0.791
23 | RRIRVRPPRLPRPRPRPGQEPRP | 0.0329
24 | RRIRVRPPRLPRPRPRPGRFPRP | 0.277
25 | RRIRVRPPRLPRPRPRPGRIPRP | 0.0466

Row | Sequence | shrunken log2 fold change
26 | RRIRVRPPRLPRPRPRPGRNPRP | -0.00746
27 | RRIRVRPPRLPRPRPRPGSGPRP | 0.0303
28 | RRIRVRPPRLPRPRPRPGSKPRP | 0.0731
29 | RRIRVRPPRLPRPRPRPGWIPRP | 0.486
30 | RRIRVRPPRLPRPRPRPGWSPRP | 0.434
31 | RRIRVRPPRLPRPRPRPGYNPRP | -0.193
32 | RRIRVRPPRLPRPRPRPGYTPRP | -0.208
33 | RRIRVRPPRLPRPRPRPHAQPRP | -0.224
34 | RRIRVRPPRLPRPRPRPHAVPRP | -0.318
35 | RRIRVRPPRLPRPRPRPHCAPRP | -0.179
36 | RRIRVRPPRLPRPRPRPHCMPRP | -0.414
37 | RRIRVRPPRLPRPRPRPHCVPRP | -0.315
38 | RRIRVRPPRLPRPRPRPHDLPRP | -0.226
39 | RRIRVRPPRLPRPRPRPHEDPRP | 0.0277
40 | RRIRVRPPRLPRPRPRPHFSPRP | -0.0373
41 | RRIRVRPPRLPRPRPRPHFWPRP | -0.158
42 | RRIRVRPPRLPRPRPRPHGSPRP | -0.156
43 | RRIRVRPPRLPRPRPRPHIRPRP | -0.503
44 | RRIRVRPPRLPRPRPRPHITPRP | -0.643
45 | RRIRVRPPRLPRPRPRPHIVPRP | -0.165
46 | RRIRVRPPRLPRPRPRPHLQPRP | 0.14
47 | RRIRVRPPRLPRPRPRPHNKPRP | -0.63
48 | RRIRVRPPRLPRPRPRPHPDPRP | 0.015
49 | RRIRVRPPRLPRPRPRPHPEPRP | -0.155
50 | RRIRVRPPRLPRPRPRPHQAPRP | 0.0697

Row | Sequence | shrunken log2 fold change
51 | RRIRVRPPRLPRPRPRPHQFPRP | -0.0147
52 | RRIRVRPPRLPRPRPRPHRYPRP | -0.348
53 | RRIRVRPPRLPRPRPRPHSHPRP | -0.348
54 | RRIRVRPPRLPRPRPRPHTGPRP | -0.495
55 | RRIRVRPPRLPRPRPRPHTKPRP | 0.11
56 | RRIRVRPPRLPRPRPRPHTTPRP | -0.26
57 | RRIRVRPPRLPRPRPRPHVVPRP | -0.479
58 | RRIRVRPPRLPRPRPRPHWRPRP | 0.306
59 | RRIRVRPPRLPRPRPRPHWVPRP | -0.152
60 | RRIRVRPPRLPRPRPRPIAIPRP | -0.0841
61 | RRIRVRPPRLPRPRPRPIANPRP | 0.0572
62 | RRIRVRPPRLPRPRPRPIDEPRP | 0.0357
63 | RRIRVRPPRLPRPRPRPIEGPRP | -0.0117
64 | RRIRVRPPRLPRPRPRPIGWPRP | 0.213
65 | RRIRVRPPRLPRPRPRPILAPRP | -0.224
66 | RRIRVRPPRLPRPRPRPILDPRP | -0.224
67 | RRIRVRPPRLPRPRPRPIMDPRP | -0.151
68 | RRIRVRPPRLPRPRPRPIMHPRP | -0.156
69 | RRIRVRPPRLPRPRPRPIMTPRP | -0.359
70 | RRIRVRPPRLPRPRPRPIQLPRP | -0.174
71 | RRIRVRPPRLPRPRPRPIQNPRP | -0.121
72 | RRIRVRPPRLPRPRPRPIQVPRP | 0.0304
73 | RRIRVRPPRLPRPRPRPITMPRP | -0.432
74 | RRIRVRPPRLPRPRPRPIVKPRP | -0.0955
75 | RRIRVRPPRLPRPRPRPIVMPRP | -0.107

Row | Sequence | shrunken log2 fold change
76 | RRIRVRPPRLPRPRPRPIWRPRP | 0.207
77 | RRIRVRPPRLPRPRPRPIYVPRP | -0.0279
78 | RRIRVRPPRLPRPRPRPKAGPRP | 0.0641
79 | RRIRVRPPRLPRPRPRPKAIPRP | -0.0609
80 | RRIRVRPPRLPRPRPRPKCLPRP | 0.127
81 | RRIRVRPPRLPRPRPRPKDLPRP | 0.0892
82 | RRIRVRPPRLPRPRPRPKDQPRP | 0.0584
83 | RRIRVRPPRLPRPRPRPKDSPRP | -0.327
84 | RRIRVRPPRLPRPRPRPKHWPRP | 0.151
85 | RRIRVRPPRLPRPRPRPKIIPRP | -0.645
86 | RRIRVRPPRLPRPRPRPKKCPRP | 0.0567
87 | RRIRVRPPRLPRPRPRPKLLPRP | -0.0409
88 | RRIRVRPPRLPRPRPRPKLRPRP | 0.128
89 | RRIRVRPPRLPRPRPRPKMFPRP | -0.056
90 | RRIRVRPPRLPRPRPRPKMIPRP | -0.162
91 | RRIRVRPPRLPRPRPRPKMMPRP | -0.313
92 | RRIRVRPPRLPRPRPRPKMYPRP | -0.252
93 | RRIRVRPPRLPRPRPRPKPMPRP | 0.131
94 | RRIRVRPPRLPRPRPRPKQMPRP | 0.114
95 | RRIRVRPPRLPRPRPRPKRFPRP | -0.0543
96 | RRIRVRPPRLPRPRPRPKSDPRP | -0.142
97 | RRIRVRPPRLPRPRPRPKTGPRP | -0.048
98 | RRIRVRPPRLPRPRPRPKVDPRP | 0.0982
99 | RRIRVRPPRLPRPRPRPKWCPRP | 0.289
100 | RRIRVRPPRLPRPRPRPKWPPRP | 0.4

Row | Sequence | shrunken log2 fold change
101 | RRIRVRPPRLPRPRPRPKYWPRP | -0.126
102 | RRIRVRPPRLPRPRPRPLDHPRP | -0.194
103 | RRIRVRPPRLPRPRPRPLDMPRP | -0.024
104 | RRIRVRPPRLPRPRPRPLESPRP | 0.114
105 | RRIRVRPPRLPRPRPRPLFFPRP | -0.121
106 | RRIRVRPPRLPRPRPRPLFWPRP | 0.139
107 | RRIRVRPPRLPRPRPRPLGCPRP | -0.0466
108 | RRIRVRPPRLPRPRPRPLGEPRP | -0.162
109 | RRIRVRPPRLPRPRPRPLHHPRP | -0.253
110 | RRIRVRPPRLPRPRPRPLIFPRP | -0.317
111 | RRIRVRPPRLPRPRPRPLINPRP | -0.354
112 | RRIRVRPPRLPRPRPRPLKMPRP | -0.561
113 | RRIRVRPPRLPRPRPRPLLEPRP | 0.0931
114 | RRIRVRPPRLPRPRPRPLLLPRP | -0.52
115 | RRIRVRPPRLPRPRPRPLLNPRP | 0.159
116 | RRIRVRPPRLPRPRPRPLLWPRP | 0.145
117 | RRIRVRPPRLPRPRPRPLMGPRP | 0.0412
118 | RRIRVRPPRLPRPRPRPLMLPRP | -0.202
119 | RRIRVRPPRLPRPRPRPLMYPRP | -0.564
120 | RRIRVRPPRLPRPRPRPLNNPRP | -0.733
121 | RRIRVRPPRLPRPRPRPLPEPRP | 0.423
122 | RRIRVRPPRLPRPRPRPLPFPRP | -0.367
123 | RRIRVRPPRLPRPRPRPLPSPRP | 0.244
124 | RRIRVRPPRLPRPRPRPLQNPRP | 0.0527
125 | RRIRVRPPRLPRPRPRPLRIPRP | 0.0616

Row | Sequence | shrunken log2 fold change
126 | RRIRVRPPRLPRPRPRPLRTPRP | 0.246
127 | RRIRVRPPRLPRPRPRPLVSPRP | 0.339
128 | RRIRVRPPRLPRPRPRPLWPPRP | 0.176
129 | RRIRVRPPRLPRPRPRPLWTPRP | 0.0846
130 | RRIRVRPPRLPRPRPRPLWYPRP | -0.263
131 | RRIRVRPPRLPRPRPRPMATPRP | -0.182
132 | RRIRVRPPRLPRPRPRPMAYPRP | -0.012
133 | RRIRVRPPRLPRPRPRPMCLPRP | -0.0244
134 | RRIRVRPPRLPRPRPRPMCRPRP | -0.0485
135 | RRIRVRPPRLPRPRPRPMCYPRP | -0.306
136 | RRIRVRPPRLPRPRPRPMDDPRP | -0.312
137 | RRIRVRPPRLPRPRPRPMECPRP | -0.00192
138 | RRIRVRPPRLPRPRPRPMELPRP | -0.135
139 | RRIRVRPPRLPRPRPRPMERPRP | 0.0131
140 | RRIRVRPPRLPRPRPRPMGVPRP | -0.0267
141 | RRIRVRPPRLPRPRPRPMIPPRP | -0.319
142 | RRIRVRPPRLPRPRPRPMKIPRP | -0.232
143 | RRIRVRPPRLPRPRPRPMLHPRP | -0.192
144 | RRIRVRPPRLPRPRPRPMMPPRP | -0.302
145 | RRIRVRPPRLPRPRPRPMPHPRP | -0.227
146 | RRIRVRPPRLPRPRPRPMQQPRP | 0.108
147 | RRIRVRPPRLPRPRPRPMSKPRP | -0.0756
148 | RRIRVRPPRLPRPRPRPMSWPRP | 0.0132
149 | RRIRVRPPRLPRPRPRPMTLPRP | -0.0218
150 | RRIRVRPPRLPRPRPRPMWSPRP | -0.0513
